{
  "source": "paper doi:10.1101/2022.08.03.502284",
  "about": "(bioRxiv, 2022)",
  "proteins": {"B1": {"name": "full-length human GABAA receptor β3 subunit homopentamer (receptor)", "chain": "QSVNDPGNMSFVKETVDKLLKGYDIRLRPDFGGPPVCVGMNIDIASIDMVSEVNMDYTLTMYFQQYWRDKRLAYSGIPLNLTLDNRVADQLWVPDTYFLNDKKSFVHGVTVKNRMIRLHPDGTVLYGLRITTTAACMMDLRRYPLDEQNCTLEIESYGYTTDDIEFYWRGGDKAVTGVERIELPQFSIVEHRLVSRNVVFATGAYPRLSLSFRLKRNIGYFILQTYMPSILITILSWVSFWINYDASAARVALGITTVLTMTTINTHLRETLPKIPYVKAIDMYLMGCFVFVFLALLEYAFVNYIFFGRGPQRQKKLAEKTAKAKNDRSKSESNRVDAHGNILLTSLEVHNEMNEVSGGIGDTRNSAISFDNSGIQYRKQSMPREGHGRFLGDRSLPHKKTHLRRRSSQLKIKIPDLTDVNAIDRWSRIVFPFTFSLFNLVYWLYYVN"}},
  "molecular_target": "the molecule itself",
  "assay": "ONE expansion microscopy of the purified protein",
  "data": [
    {"protein": "B1", "values": [
      {"measurement": "binding result", "result": "binds"}
    ]}
  ]
}
